Measured values as given in publication PMC3741282, “Novel VEGF Decoy Receptor Fusion Protein Conbercept Targeting Multiple VEGF Isoforms Provide Remarkable Anti-Angiogenesis Effect In Vivo” (PLoS ONE, 2013).

How the values were obtained:
Details in all cases: both partners purified
[1] = target: T1, VEGF-A165; assay: ELISA; antigen (VEGF-A165, VEGF-B167 or PlGF) coated at 4 nM in PBS on PVC plate, blocked with 1% BSA; diluted conbercept added 2 h at room temperature; detected with HRP goat anti-human secondary antibody, absorbance at 450 nm
T1 chain: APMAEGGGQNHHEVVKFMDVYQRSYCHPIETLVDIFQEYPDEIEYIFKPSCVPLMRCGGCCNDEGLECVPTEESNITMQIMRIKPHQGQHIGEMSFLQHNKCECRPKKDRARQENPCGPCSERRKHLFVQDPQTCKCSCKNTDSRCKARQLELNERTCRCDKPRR

[2] = target: T2, VEGF-A121; assay: SPR; BIACORE 3000; VEGF-A isoforms amine-coupled on CM5 chip (about 5,000±500 RU), FC1 blank; conbercept injected at eight two-fold dilutions 1.25 nM to 160 nM in HBS buffer (10 mM HEPES, 0.15 M sodium chloride, 3.4 mM EDTA, 0.005% surfactant P20); 1:1 binding with baseline drift model
T2 chain: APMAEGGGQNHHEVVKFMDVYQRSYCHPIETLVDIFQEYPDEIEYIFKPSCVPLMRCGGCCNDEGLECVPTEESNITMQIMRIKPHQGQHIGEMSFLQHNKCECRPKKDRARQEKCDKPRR

[3] = target: T1, VEGF-A165; assay: as above
[4] = target: T3, VEGF-B167 (UniProt P49765-2 22-188); assay: SPR; BIACORE 3000; VEGF-B167 and PlGF immobilized on CM5 chip, FC1 blank; conbercept injected at eight two-fold dilutions 31.25 nM to 4000 nM in HBS buffer
T3 construct: VEGF-B, isoform VEGF-B167; source: bought: R&D
T3 sequence (looked up): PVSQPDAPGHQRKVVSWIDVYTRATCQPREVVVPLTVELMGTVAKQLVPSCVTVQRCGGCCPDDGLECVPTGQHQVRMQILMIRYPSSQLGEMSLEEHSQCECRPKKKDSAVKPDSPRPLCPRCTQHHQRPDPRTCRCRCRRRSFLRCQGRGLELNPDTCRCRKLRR

[5] = target: T4, placental growth factor (PlGF) (UniProt P49763 19-221); assay: as above
T4 chain: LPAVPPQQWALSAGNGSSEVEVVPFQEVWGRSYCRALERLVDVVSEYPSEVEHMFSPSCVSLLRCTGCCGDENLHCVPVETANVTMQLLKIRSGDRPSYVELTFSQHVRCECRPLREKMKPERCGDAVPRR

EC50 [1]: 0.1 nM | Kd [2]: 5.26 nM | koff [2]: 0.00105 s⁻¹ | kon [2]: 199000 M⁻¹ s⁻¹ | Kd [3]: 5.4 nM | koff [3]: 0.00105 s⁻¹ | kon [3]: 194000 M⁻¹ s⁻¹ | Kd [4]: 81.8 nM | koff [4]: 0.00558 s⁻¹ | kon [4]: 68300 M⁻¹ s⁻¹ | Kd [5]: 51.2 nM | koff [5]: 0.00581 s⁻¹ | kon [5]: 114000 M⁻¹ s⁻¹
B1: conbercept (Fc fusion)
chain: GRPFVEMYSEIPEIIHMTEGRELVIPCRVTSPNITVTLKKFPLDTLIPDGKRIIWDSRKGFIISNATYKEIGLLTCEATVNGHLYKTNYLTHRQTNTIIDVVLSPSHGIELSVGEKLVLNCTARTELNVGIDFNWEYPSSKHQHKKLVNRDLKTQSGSEMKKFLSTLTIDGVTRSDQGLYTCAASSGLMTKKNSTFVRVHEKPFVAFGSGMESLVEATVGERVRIPAKYLGYPPPEIKWYKNGIPLESNHTIKAGHVLTIMEVSERDTGNYTVILTNPISKEKQSHVVSLVVYVPP
modifications: Human IgG1 Fc carrier left out; it dimerises the chain (copies 2). Limits not printed: VEGFR1 Ig2 and VEGFR2 Ig3-4 taken by convention from decoy-receptor boundaries and entry features. Glycosylated …
